Assay results taken from patent US20090117124A1.

How the values were obtained:
[1] = biological target: cynomolgus monkey IgE (in cynomolgus serum, Harlan Sera-Lab Ltd) (cynomolgus monkey); experiment: capture ELISA, Test 2, Cyno 5
[2] = biological target: cynomolgus monkey IgE (in cynomolgus serum, Harlan Sera-Lab Ltd) (cynomolgus monkey); experiment: capture ELISA, Test 2, Cyno 1
[3] = biological target: cynomolgus monkey IgE (in cynomolgus serum, Harlan Sera-Lab Ltd) (cynomolgus monkey); experiment: capture ELISA, Test 1, Cyno 7
[4] = biological target: cynomolgus monkey IgE (in cynomolgus serum, Harlan Sera-Lab Ltd) (cynomolgus monkey); experiment: capture ELISA, Test 1, Cyno 5
[5] = biological target: cynomolgus monkey IgE (in cynomolgus serum, Harlan Sera-Lab Ltd) (cynomolgus monkey); experiment: capture ELISA, Test 1, Cyno 2
[6] = biological target: cynomolgus monkey IgE (in cynomolgus serum, Harlan Sera-Lab Ltd) (cynomolgus monkey); experiment: capture ELISA, Test 1, Cyno 1
[7] = biological target: cynomolgus monkey IgE (in cynomolgus serum, Harlan Sera-Lab Ltd) (cynomolgus monkey); experiment: capture ELISA, Test 2, Cyno 7
[8] = biological target: cynomolgus monkey IgE (in cynomolgus serum, Harlan Sera-Lab Ltd) (cynomolgus monkey); experiment: capture ELISA, Test 2, Cyno 3
[9] = biological target: cynomolgus monkey IgE (in cynomolgus serum, Harlan Sera-Lab Ltd) (cynomolgus monkey); experiment: capture ELISA, Test 2, Cyno 2
[10] = biological target: cynomolgus monkey IgE (in cynomolgus serum, Harlan Sera-Lab Ltd) (cynomolgus monkey); experiment: capture ELISA, Test 1, Cyno 3

IgE concentration detected [1]: 252 ng/mL
IgE concentration detected [2]: 146 ng/mL
IgE concentration detected [3]: 0 ng/mL
IgE concentration detected [4]: 232 ng/mL
IgE concentration detected [5]: 52 ng/mL
IgE concentration detected [6]: 172 ng/mL
IgE concentration detected [7]: 0 ng/mL
IgE concentration detected [8]: 135 ng/mL
IgE concentration detected [9]: 104 ng/mL
IgE concentration detected [10]: 166 ng/mL
Substance: E25 (antibody)
